Laboratory results published in FireProtDB (doi:10.3390/ijms21030752).

B1: Guanylyl cyclase-activating protein 1, P43080 (parent)
chain: MGNVMEGKSVEELSSTECHQWYKKFMTECPSGQLTLYEFRQFFGLKNLSPSASQYVEQMFETFDFNKDGYIDFMEYVAALSLVLKGKVEQKLRWYFKLYDVDGNGCIDRDELLTIIQAIRAINPCSDTTMTAEEFTDTVFSKIDVNGDGELSLEEFIEGVQKDQMLLDTLTRSLDLTRIVRRLQNGEQDEEGADEAAEAAG

Variants of: B1
Conditions: Homo sapiens, pH 7.5, Thermal, CD, Tris-HCl 20mM, whole UniProt chain shown

With G86R W94L the Tm (KCL 150 mM) was 42 °C, the “change of melting temperature, mutant - wild type (higher = more stable)” value (shortened to “change of melting temperature, mutant”) (KCL 150 mM) was -7.8 °C and the Tm (KCL and Mg2+ 150 mM and 1 mM) was 47 °C. For the same variant, the “change of melting temperature, mutant” value (KCL and Mg2+ 150 mM and 1 mM) was -3.3 °C.

In the case of G86R W94F, the Tm (KCL 150 mM) is reported as 40.6 °C, the “change of melting temperature, mutant” value (KCL 150 mM) is reported as -9.2 °C and the Tm (KCL and Mg2+ 150 mM and 1 mM) is reported as 47.8 °C. The “change of melting temperature, mutant” value (KCL and Mg2+ 150 mM and 1 mM) was -2.5 °C.

In the case of G86R, the Tm (KCL 150 mM) is reported as 41.6 °C, the “change of melting temperature, mutant” value (KCL 150 mM) is reported as -8.2 °C and the Tm (KCL and Mg2+ 150 mM and 1 mM) is reported as 46.8 °C. For the same variant, the “change of melting temperature, mutant” value (KCL and Mg2+ 150 mM and 1 mM) was -3.5 °C.
